Source: patent EP2292266A1

Assays:
[1] = biological target: ErbB2 (human) (UniProt P04626); test: FRET acceptor photobleaching in fixed, HRG-treated SKBr3 cells (Alexa488 donor on Copine-III, Cy3 acceptor on ErbB2)
[2] = biological target: ErbB2 (human) (UniProt P04626); test: FRET acceptor photobleaching
[3] = biological target: pTyr1248-containing peptide of ErbB2 (desthiobiotin-…-NH2, Tyr-phosphorylated form) (human); test: SILAC peptide affinity pull-down from T47D lysates, MRM mass spectrometry; reference is the non-phosphorylated Tyr1248 peptide

Copine III, sequence (O75131 whole entry): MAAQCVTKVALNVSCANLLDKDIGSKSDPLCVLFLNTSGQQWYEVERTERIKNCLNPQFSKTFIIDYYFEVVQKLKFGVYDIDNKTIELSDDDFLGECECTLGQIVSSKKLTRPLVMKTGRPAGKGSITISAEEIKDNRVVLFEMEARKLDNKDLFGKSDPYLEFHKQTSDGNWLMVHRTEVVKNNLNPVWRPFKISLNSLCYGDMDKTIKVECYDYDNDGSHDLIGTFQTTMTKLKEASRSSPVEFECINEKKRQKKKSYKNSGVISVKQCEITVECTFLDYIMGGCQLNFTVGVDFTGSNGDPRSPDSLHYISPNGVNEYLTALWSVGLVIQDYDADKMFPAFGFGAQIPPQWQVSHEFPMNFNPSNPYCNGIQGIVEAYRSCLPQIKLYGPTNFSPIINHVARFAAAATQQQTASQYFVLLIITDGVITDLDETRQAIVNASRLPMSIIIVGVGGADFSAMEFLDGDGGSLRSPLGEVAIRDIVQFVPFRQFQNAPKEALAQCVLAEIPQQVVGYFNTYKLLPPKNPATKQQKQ

In the case of Copine III (from UniProt O75131 1-537), the FRET efficiency (E) [1] is reported as 8.3, the FRET efficiency [2] is reported as 8 and the quantification ratio (heavy/light peak area, pTyr peptide over Tyr peptide) [3] is reported as 1.8.
